T1: PPARγ2 (Homo sapiens, UniProt P37231)
T1 sequence (P37231 1-505): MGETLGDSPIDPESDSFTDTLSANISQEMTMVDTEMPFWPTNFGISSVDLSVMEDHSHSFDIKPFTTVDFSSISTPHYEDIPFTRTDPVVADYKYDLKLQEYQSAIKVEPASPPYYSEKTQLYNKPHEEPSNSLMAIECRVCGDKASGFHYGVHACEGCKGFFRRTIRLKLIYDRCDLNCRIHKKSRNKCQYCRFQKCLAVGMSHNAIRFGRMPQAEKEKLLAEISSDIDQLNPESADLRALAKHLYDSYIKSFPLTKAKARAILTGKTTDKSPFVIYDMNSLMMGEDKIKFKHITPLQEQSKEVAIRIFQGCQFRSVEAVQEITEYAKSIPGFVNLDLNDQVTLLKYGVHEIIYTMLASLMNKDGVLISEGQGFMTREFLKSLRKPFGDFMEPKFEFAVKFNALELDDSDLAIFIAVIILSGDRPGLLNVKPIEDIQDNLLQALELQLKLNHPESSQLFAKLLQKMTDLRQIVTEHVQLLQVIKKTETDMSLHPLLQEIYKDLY

B1: sLZIP: human small leucine-zipper protein, isoform of LZIP, 354 amino acids, no transmembrane domain; GenBank FJ263669, SEQ ID NO: 1 (protein, listed as Homo sapiens)
chain: MELELDAGDQDLLAFLLEESGDLGTAPDEAVRAPLDWALPLSEVPSDWEVDDLLCSLLSPPASLNILSSSNPCLVHHDHTYSLPRETVSMDLESESCRKEGTQMTPQHMEELAEQEIARLVLTDEEKSLLEKEGLILPETLPLTKTEEQILKRVRRKIRNKRSAQESRRKKKVYVGGLESRVLKYTAQNMELQNKVQLLEEQNLSLLDQLRKLQAMVIEISNKTSSSSMYSSDTRGSLPAEHGVLSRQLRALPSEDPYQLELPALQSEVPKDSTHQWLDGSDCVLQAPGNTSCLLHYMPQAPSAEPPLEWPFPDLFSEPLCRGPILPLQANLTRKGGWLPTGSPSVILQDRYSG
B2: N domains of sLZIP: N-terminal deletion mutant of sLZIP, residues 1-228 (protein)
chain: MELELDAGDQDLLAFLLEESGDLGTAPDEAVRAPLDWALPLSEVPSDWEVDDLLCSLLSPPASLNILSSSNPCLVHHDHTYSLPRETVSMDLESESCRKEGTQMTPQHMEELAEQEIARLVLTDEEKSLLEKEGLILPETLPLTKTEEQILKRVRRKIRNKRSAQESRRKKKVYVGGLESRVLKYTAQNMELQNKVQLLEEQNLSLLDQLRKLQAMVIEISNKTSSSS
modifications: left off: a dimerising Fc or GST

Assays:
PPARγ2 = molecular target: T1, PPARγ2; assay: Luciferase reporter gene analysis (FABP4-Luc) of PPARγ2 transcriptional activity in 293T cells; assay type: cell-based; design: expressed in transfected cells; host or cells: 293T cells; conditions: 293T cells; for transcriptional activity of PPARγ2 (luciferase): sLZIP 0.1 μg; for PPARγ2 transcriptional activity (luciferase): sLZIP or deletion mutants 0.1 μg, RZD treated
Description: C3H10T1/2 and 293T cells were plated in a 12-well culture dish at a density of 2×10^5 cells/well and incubated for 24 hours. Then, according to instructions of the manufacturer, the cells were transfected with a 0.2 μg of reporter genes and 0.1 to 0.5 μg of a laboratory plasmid using Lipofectamine 2000 or Genefectine. After 24 hours, the cells were cultured in a serum-free DMEM with or without 10 nM of rosiglitazone. siRNAs were prepared using sLZIP and HDAC target sequences (Table 1). For an RNA interference experiment, according to instructions of the manufacturer, the cells were transfected with scrambled control group RNA and appropriate siRNAs using Lipofectamine 2000. Human MSC and C3H10T/1/2 cells were infected with an adenovirus vector containing cDNA of human sLZIP or an empty vector. The infected medium was exchanged with a fresh medium after two hours.
Appropriately transfected cells were washed with cold PBS twice, and a reporter lysis buffer (Promega) was used and lysed in a culture dish. Luciferase analysis was performed using a luciferase analysis system (Promega Corporation, Madison, Wis.). A luciferase activity was recorded in Luminometer 20/20^n (Turner BioSystems, Sunnyvale, Calif.) according to instructions of the manufacturer. The luciferase activity was normalized to a β-galactosidase activity. For β-galactosidase analysis, CMV-β-galactosidase was transfected with luciferase reporter genes. All pieces of data were represented as mean±standard deviation of the results from at least three independent experiments.
In order to examine an effect of sLZIP on the transcriptional activity of PPARγ2, 293T cells were temporarily transfected with PPARγ2 (0.5 μg), β-galactosidase (0.1 μg), FABP4-Luc reporter genes (0.2 μg) and sLZIP at different contents (0.1 to 0.5 μg). After the transfection, the cells were stimulated with or without 10 nM of rosiglitazone (RZD) (FIG. 1A), pioglitazone (PZD) (FIG. 1B), and troglitazone (TZD) (FIG. 1C). A relative luciferase activity was analyzed with or without cell ligand treatment 24 hours after transfection. Also, the 293T cells were transiently transfected with si-sLZIP at different contents (50 and 100 nM), and the cells were treated or not treated with RZD (FIG. 1D). FABP4-Luc stable C3H10T1/2 cells were infected with a sLZIP-expressing adenovirus, and then differentiated into adipocytes for 4 days (FIG. 1E). A luciferase activity was normalized to a β-galactosidase activity and represented as a relative activity (fold change). All experiments were repeated three times, and bars in the graph represent mean±standard deviation. *, P<0.05; **, P<0.01
For this purpose, 293T cells were transiently transfected with PPARγ2 (0.5 μg), (3-galactosidase (0.1 μg), FABP4-Luc reporter genes (0.2 μg) and sLZIP (0.1 μg). After the transfection, the cells were stimulated with or without 10 nM of RZD and 10 nM of TSA (FIG. 4A). A promoter activity was measured according to luciferase analysis. In the 293T cells, FABP4-Luc reporter genes, sLZIP, PPAR, β-galactosidase, and 100 nM of si-RNAs and HDAC1, 2, 3 and 8 for a control group were expressed. After the transfection, the cells were stimulated with or without 10 nM of RZD, and a promoter activity was measured (FIG. 4B). 293T cells were temporarily transfected with FABP4-Luc reporter genes, PPARγ2, β-galactosidase, HDAC3 (0.5 μg) and sLZIP (0.1 μg). After the transfection, the cells were stimulated with or without 10 nM of RZD, and luciferase analysis was performed (FIG. 4C). A luciferase activity was normalized to a β-galactosidase activity and represented as a relative intensity (fold change). All experiments were repeated three times, and bars in the graph represent mean±standard deviation. GFP-sLZIP expression constructs were expressed in C3H10T1/2 cells, rabbit anti-HDAC3 antibodies and Texas Red-labeled anti-rabbit antibodies were used and analysis was performed under a fluorescence microscope. The nucleus was stained with DAPI (FIG. 4D). […]

PGC1α = assay: GST pull-down of GST-PPARγ2 with anti-PGC1α immunoblot in 293T cells; assay type: binding; conditions: 10 nM RZD for 24 hours
Description: Therefore, in order to understand a regulation mechanism of sLZIP in the PPARγ2 transcriptional activity by binding to the FABP4 promoter region, an effect of sLZIP on the interaction between PPARγ2 and HDAC3 was examined. For this purpose, 293T cells were transfected with GST-HDAC3, Myc-PPARγ2 and Flag-sLZIP, and were treated or not treated with 10 nM of RZD for 24 hours. Cell lysates were subjected to GST pull-down analysis using a glutathione 4B bead, and a protein complex was analyzed in SDS-PAGE, and then immunoblotted with anti-GST, anti-Myc and anti-Flag antibodies (FIG. 6A). GST-HDAC3, GST-PPARγ2, Myc-PPARγ2, Flag-sLZIP and Ha-UB were expressed in the 293T cells, and the cells were treated with 10 nM of RZD for 24 hours. Cell lysates were subjected to GST pull-down analysis (FIG. 6B). GST-PPARγ2 and Flag-sLZIP were expressed in the 293T cells and treated with 10 nM of RZD for 24 hours. Cell lysates were subjected to GST pull-down analysis, and a protein complex was analyzed in SDS-PAGE, and then immunoblotted with anti-PGC1α, anti-GST and anti-Flag antibodies (FIG. 6C).

Molecule	transcriptional activity of PPARγ2 (luciferase) (PPARγ2; cells treated with 10 nM TSA (HDAC inhibitor))	transcriptional activity of PPARγ2 (luciferase) (PPARγ2; no TSA)	transcriptional activity of PPARγ2 (relative luciferase activity) (PPARγ2; sLZIP 0.1 to 0.5 μg, with or without 10 nM RZD, PZD or TZD)	PPARγ2 transcriptional activity (luciferase) (PPARγ2)	sLZIP-mediated PPARγ2 transcriptional activity (luciferase) (PPARγ2; transfection of both sLZIP (0.1 μg) and HDAC3 (0.5 μg))	recruitment of coactivator PGC-1α to PPARγ2 (PGC1α)
B1	did not decrease the transcriptional activity of PPARγ2	inhibits the transcriptional activity of PPARγ2	inhibits the transcriptional activity of PPARγ2 in a concentration-dependent manner	still inhibited the PPARγ2 transcriptional activity	significantly down-regulated	inhibited the complementing of a coactivator PGC-la for PPARγ2
B2	–	–	–	The transcriptional activity of PPARγ2 was inhibited	–	–

— US10058586B2, “Use of human small leucine zipper protein in adipocyte differentiation procedure” (Korea University Research and Business Foundation, priority 2013, dated 2018)
